B1: Serine/threonine-protein kinase VRK1 (Homo sapiens), Q99986 (parent)
chain: MPRVKAAQAGRQSSAKRHLAEQFAVGEIITDMAKKEWKVGLPIGQGGFGCIYLADMNSSESVGSDAPCVVKVEPSDNGPLFTELKFYQRAAKPEQIQKWIRTRKLKYLGVPKYWGSGLHDKNGKSYRFMIMDRFGSDLQKIYEANAKRFSRKTVLQLSLRILDILEYIHEHEYVHGDIKASNLLLNYKNPDQVYLVDYGLAYRYCPEGVHKEYKEDPKRCHDGTIEFTSIDAHNGVAPSRRGDLEILGYCMIQWLTGHLPWEDNLKDPKYVRDSKIRYRENIASLMDKCFPEKNKPGEIAKYMETVKLLDYTEKPLYENLRDILLQGLKAIGSKDDGKLDLSVVENGGLKAKTITKKRKKEIEESKEPGVEDTEWSNTQTEEAIQTRSRTRKRVQK

The variants in this assay derive from B1. The note with it: with plk3_human PLK3, Q9H4B4.
plk3_human PLK3, Q9H4B4, sequence (Q9H4B4 whole entry, looked up): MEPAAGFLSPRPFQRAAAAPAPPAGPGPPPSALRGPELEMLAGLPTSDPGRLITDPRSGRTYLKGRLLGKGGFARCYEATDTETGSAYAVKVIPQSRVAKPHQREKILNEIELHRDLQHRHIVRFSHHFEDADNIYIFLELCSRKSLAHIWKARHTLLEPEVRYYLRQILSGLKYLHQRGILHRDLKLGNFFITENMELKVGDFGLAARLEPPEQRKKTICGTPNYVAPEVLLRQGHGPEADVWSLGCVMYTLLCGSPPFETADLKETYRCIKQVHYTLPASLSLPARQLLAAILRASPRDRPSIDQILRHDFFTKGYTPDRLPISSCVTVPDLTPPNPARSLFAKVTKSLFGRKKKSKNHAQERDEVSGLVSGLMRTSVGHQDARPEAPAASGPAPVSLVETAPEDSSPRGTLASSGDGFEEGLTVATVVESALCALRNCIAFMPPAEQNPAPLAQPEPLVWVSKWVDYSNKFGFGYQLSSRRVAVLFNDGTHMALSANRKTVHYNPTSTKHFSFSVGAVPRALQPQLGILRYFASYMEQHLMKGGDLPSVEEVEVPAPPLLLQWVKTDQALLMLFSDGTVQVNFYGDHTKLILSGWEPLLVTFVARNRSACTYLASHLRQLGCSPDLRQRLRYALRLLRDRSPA
Consider MPRVKAAQAGRQSSAKRHLAEQFAVGEIITDMAKKEWKVGLPIGQGGFGCIYLADMNSSESVGSDAPCVVKVEPSDNGPLFTELKFYQRAAKPEQIQKWIRTRKLKYLGVPKYWGSGLHDKNGKSYRFMIMDRFGSDLQKIYEANAKRFSRKTVLQLSLRILDILEYIHEHEYVHGDIKASNLLLNYKNPDQVYLVDYGLAYRYCPEGVHKEYKEDPKRCHDGTIEFTSIDAHNGVAPSRRGDLEILGYCMIQWLTGHLPWEDNLKDPKYVRDSKIRYRENIASLMDKCFPEKNKPGEIAKYMETVKLLDYTEKPLYENLRDILLQGLKAIGSKDDGKLDLAVVENGGLKAKTITKKRKKEIEESKEPGVEDTEWSNTQTEEAIQTRSRTRKRVQK [S342A], for which the “effect of a mutation on the interaction” value was “disrupting interaction”.

These data come from IntAct's records for PubMed 19103756.
